Experimental findings from publication PMC10042815 are described below.

The target of this experiment is thrombin (Sigma, Germany).

In the case of “commercially available hirudin (MedChem Express) (natural protein)”, the antithrombin activity by thrombin titration (bovine fibrinogen, fibrin clot within 1 min as endpoint, 37 °C, 50 mM Tris-HCl pH 7.4) was 12000 ATU/mL.
In turn, “recombinant hirudin from Hirudo nipponia (candidate hirudin gene c16237_g1) (natural protein)” displayed an antithrombin activity by thrombin titration (bovine fibrinogen, fibrin clot within 1 min as endpoint, 37 °C, 50 mM Tris-HCl pH 7.4) of 14000 ATU/mL.
